Positions count from the first letter of the chain named. Names and notes keep the numbering of the source. Read-outs that look alike come from different tables or passages of the source.
B1: human PUS3 D118A, catalytically inactive variant (enzyme, UniProt Q9BZE2 1-481, looked up)
chain: MAYNDTDRNQTEKLLKRVRELEQEVQRLKKEQAKNKEDSNIRENSAGAGKTKRAFDFSAHGRRHVALRIAYMGWGYQGFASQENTNNTIEEKLFEALTKTRLVESRQTSNYHRCGRTAKGVSAFGQVISLDLRSQFPRGRDSEDFNVKEEANAAAEEIRYTHILNRVLPPDIRILAWAPVEPSFSARFSCLERTYRYFFPRADLDIVTMDYAAQKYVGTHDFRNLCKMDVANGVINFQRTILSAQVQLVGQSPGEGRWQEPFQLCQFEVTGQAFLYHQVRCMMAILFLIGQGMEKPEIIDELLNIEKNPQKPQYSMAVEFPLVLYDCKFENVKWIYDQEAQEFNITHLQQLWANHAVKTHMLYSMLQGLDTVPVPCGIGPKMDGMTEWGNVKPSVIKQTSAFVEGVKMRTYKPLMDRPKCQGLESRIQHFVRRGRIEHPHLFHEEETKAKRDCNDTLEEENTNLETPTKRVCVDTEIKSII
B2: human PUS3 H355T/T359A (enzyme, UniProt Q9BZE2 1-481, looked up)
chain: B1 chain with A118D, H355T, T359A

Tests used:
SEC = target: the molecule itself; test: SEC
[1] = target: the molecule itself

| Protein | stoichiometry N (SEC) | stoichiometry N [1] |
| --- | --- | --- |
| B1 | 2 | – |
| B2 | – | 2 |

— article PMC11258540 (Molecular Cell, 2024)
